In publication PMC4859805, “Molecular mechanism of activation-triggered subunit exchange in Ca^2+/calmodulin-dependent protein kinase II” (eLife, 2016) one finds response data, which are given here for three variants.

To fix the notation:
B1: Peptide B (human CaMKII-α 290-309, unphosphorylated, unlabeled) [human] / human CaMKII-α hub domain [human] (parent complex)
chain 1: LKKFNARRKLKGAILTTMLA
chain 2: VRKQEIIKVTEQLIEAISNGDFESYTKMCDPGMTAFEPEALGNLVEGLDFHRFYFENLWSRNSKPVHTTILNPHIHLMGDESACIAYIRITQYLDAGGIPRTAQSEETRVWHRRDGKWQIVHFHRSGAPSV

In this assay the parent is B1. The assay is described as follows: fluorescence polarisation competition; point read at 500 µM unlabeled peptide; 2 nM labeled peptide A bound to 30 µM hub; lower polarization = more labeled peptide competed off; parent: 150; read off a plot.
For the variant chain 1 LKEFNAERKLEGAILTTMLA [chain 1 K3E, chain 1 R7E, chain 1 K11E], the response is roughly 210.

For the variant chain 1 LKKFNAERKLKGAILTTMLA [chain 1 R7E], the response was roughly 160.

Turning to chain 1 LKKFNARRKLEGAILTTMLA [chain 1 K11E], the response was roughly 180.
